Reference: patent US20200405868A1, “GEL-FORMING POLYPEPTIDES” (priority 2018, published 2020)
Blank lines part the entries; values can stand above or below the substance they belong to.

Experiments:
[1] = biological target: GnRH receptor (GnRHR or LHRHR) (UniProt P30968); test: cell-based or functional assay
[2] = biological target: bradykinin receptor 2 (BDKRB2) (UniProt P30411); test: cell-based or functional assay
[3] = biological target: melanocortin receptor 1 (MC1R) (UniProt Q01726); test: cell-based or functional assay
Sequence of melanocortin receptor 1 (MC1R) (Q01726 whole entry): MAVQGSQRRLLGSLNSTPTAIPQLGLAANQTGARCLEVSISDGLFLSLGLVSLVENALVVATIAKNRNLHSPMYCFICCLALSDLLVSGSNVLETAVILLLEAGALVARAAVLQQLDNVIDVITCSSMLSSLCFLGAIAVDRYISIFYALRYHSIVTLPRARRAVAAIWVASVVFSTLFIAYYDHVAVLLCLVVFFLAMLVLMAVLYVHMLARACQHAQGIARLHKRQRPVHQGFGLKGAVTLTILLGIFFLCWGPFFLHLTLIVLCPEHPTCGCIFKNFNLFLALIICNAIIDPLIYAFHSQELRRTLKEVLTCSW

[4] = biological target: melanocortin receptor 4 (MC4R) (UniProt P32245); test: cell-based or functional assay
Sequence of melanocortin receptor 4 (MC4R) (P32245 whole entry): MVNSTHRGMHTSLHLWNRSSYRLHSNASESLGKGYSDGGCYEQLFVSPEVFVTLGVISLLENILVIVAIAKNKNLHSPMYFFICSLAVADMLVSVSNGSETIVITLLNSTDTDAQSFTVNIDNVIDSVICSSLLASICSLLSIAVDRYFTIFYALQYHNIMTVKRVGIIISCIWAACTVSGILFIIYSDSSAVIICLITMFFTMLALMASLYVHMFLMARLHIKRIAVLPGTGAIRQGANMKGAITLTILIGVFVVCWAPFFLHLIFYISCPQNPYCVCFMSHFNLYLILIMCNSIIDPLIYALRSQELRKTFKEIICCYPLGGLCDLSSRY

PTH receptor 1 (PTHR1) = PTH receptor 1 (PTHR1) (UniProt Q03431); test: cell-based or functional assay
Sequence of PTH receptor 1 (PTHR1) (Q03431 27-593 limits assumed): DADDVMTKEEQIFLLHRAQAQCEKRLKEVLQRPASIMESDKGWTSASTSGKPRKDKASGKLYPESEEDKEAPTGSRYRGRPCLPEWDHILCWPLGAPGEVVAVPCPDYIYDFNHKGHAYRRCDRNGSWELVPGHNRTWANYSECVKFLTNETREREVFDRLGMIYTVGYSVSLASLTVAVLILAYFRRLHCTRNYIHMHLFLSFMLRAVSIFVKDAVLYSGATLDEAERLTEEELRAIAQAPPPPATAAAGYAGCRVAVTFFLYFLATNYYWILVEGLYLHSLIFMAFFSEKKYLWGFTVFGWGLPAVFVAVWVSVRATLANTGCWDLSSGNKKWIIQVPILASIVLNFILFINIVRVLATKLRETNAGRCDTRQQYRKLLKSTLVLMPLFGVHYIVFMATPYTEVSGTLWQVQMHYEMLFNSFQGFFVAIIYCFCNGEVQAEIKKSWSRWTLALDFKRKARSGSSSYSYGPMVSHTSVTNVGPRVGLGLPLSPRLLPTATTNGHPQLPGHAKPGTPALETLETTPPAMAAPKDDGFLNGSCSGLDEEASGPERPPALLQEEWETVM

[5] = biological target: FITC-labled GnRH molecule (a peptide) (UniProt P01148); test: Centricon filter release assay: FITC-GnRH that passed into the lower chamber with nongel-forming peptide at 1 mg/10 ml (control without carrier 72.50)
[6] = biological target: FITC-labled GnRH molecule (a peptide) (UniProt P01148); test: Centricon filter release assay: FITC-GnRH that passed into the lower chamber with nongel-forming peptide at 1 mg/100 ml (control without carrier 72.50)
[7] = biological target: kappa opioid receptor (OPRK1) (UniProt P41145); test: cell-based or functional assay
Sequence of kappa opioid receptor (OPRK1) (P41145 whole entry): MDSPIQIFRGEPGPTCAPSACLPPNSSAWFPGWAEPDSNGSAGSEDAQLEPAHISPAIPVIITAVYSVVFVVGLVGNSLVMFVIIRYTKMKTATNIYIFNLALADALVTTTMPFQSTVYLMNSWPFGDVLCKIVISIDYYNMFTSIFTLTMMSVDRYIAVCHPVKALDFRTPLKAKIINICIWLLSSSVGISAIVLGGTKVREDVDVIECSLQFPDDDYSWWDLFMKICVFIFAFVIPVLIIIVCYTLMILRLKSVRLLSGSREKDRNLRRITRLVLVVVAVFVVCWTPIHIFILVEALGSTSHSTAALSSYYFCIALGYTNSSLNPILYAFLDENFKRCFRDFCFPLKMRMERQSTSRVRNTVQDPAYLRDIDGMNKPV

Sequence of GnRH receptor (GnRHR or LHRHR) (P30968 whole entry): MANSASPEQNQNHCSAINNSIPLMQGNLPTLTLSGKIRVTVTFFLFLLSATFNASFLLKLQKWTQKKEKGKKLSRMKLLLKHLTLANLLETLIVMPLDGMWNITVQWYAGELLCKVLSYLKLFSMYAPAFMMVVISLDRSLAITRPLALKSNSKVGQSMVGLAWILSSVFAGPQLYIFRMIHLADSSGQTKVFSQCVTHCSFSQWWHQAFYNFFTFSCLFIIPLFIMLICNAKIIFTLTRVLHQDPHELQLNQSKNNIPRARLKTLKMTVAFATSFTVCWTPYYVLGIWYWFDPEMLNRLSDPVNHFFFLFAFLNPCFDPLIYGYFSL
Sequence of bradykinin receptor 2 (BDKRB2) (P30411 whole entry): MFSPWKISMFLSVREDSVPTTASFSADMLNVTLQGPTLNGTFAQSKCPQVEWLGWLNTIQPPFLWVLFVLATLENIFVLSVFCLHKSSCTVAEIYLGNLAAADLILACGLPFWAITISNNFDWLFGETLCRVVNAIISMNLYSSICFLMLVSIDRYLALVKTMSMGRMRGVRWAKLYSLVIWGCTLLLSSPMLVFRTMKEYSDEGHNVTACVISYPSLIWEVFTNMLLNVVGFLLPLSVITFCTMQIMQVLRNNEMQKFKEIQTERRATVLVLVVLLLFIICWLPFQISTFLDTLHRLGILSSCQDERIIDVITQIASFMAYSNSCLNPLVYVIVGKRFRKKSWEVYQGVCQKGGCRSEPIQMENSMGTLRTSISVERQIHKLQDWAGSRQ

IC50 (nM), GnRHR calcium flux antagonistic assay [1]: 0.08 nM | Max Activity % of positive control, GnRHR calcium flux antagonistic assay (% of positive control) [1]: 91.4
Substance: Cetrorelix (positive control) (peptide)

IC50 (nM), BDKRB2 arrestin antagonistic assay [2]: 132 nM | Max Activity % of positive control, BDKRB2 arrestin antagonistic assay (% of positive control) [2]: 100
Substance: HOE140 (a BKR2 antagonist), (D-Arg)-Arg-Pro-Hyp-Gly-Thi-Ser-(D-Tic)-Oic-Arg (peptide)

EC50 (nM), MC1R cAMP agonistic assay [3]: 0.56 nM | Max Activity % of positive control, MC1R cAMP agonistic assay (% of positive control) [3]: 102 | EC50 (nM), MC4R cAMP agonistic assay [4]: 2 nM | Max Activity % of positive control, MC4R cAMP agonistic assay (% of positive control) [4]: 101
Substance: Melanotan II peptide (positive control)

EC50 (nM), PTHR1 cAMP agonistic assay (PTH receptor 1 (PTHR1)): 0.8 nM | Max Activity % of positive control, PTHR1 cAMP agonistic assay (% of positive control) (PTH receptor 1 (PTHR1)): 101
Substance: PTH(1-34) peptide (positive control) (from UniProt P01270 32-65)

Fluorescent Reading (average of duplicates) [5]: 55.4 | Fluorescent Reading (average of duplicates) [6]: 71
Substance: SEQ ID NO:133, Pal-VGSNTY-NH2, nongel-forming peptide

IC50 (nM), GnRHR calcium flux antagonistic assay [1]: < 0.51 nM | Max Activity % of positive control, GnRHR calcium flux antagonistic assay (% of positive control) [1]: 109
Substance: SEQ ID NO: 203, Pal-HSY-(D-Nal)-(D-Cpa)-(D-Pal)-SY-(D-Cit)-LRP-(D-Ala)-NH2, gel-forming GnRHR antagonist analog (peptide)

EC50 (nM), OPRK1 cAMP agonistic assay [7]: 272 nM | Max Activity % of positive control, OPRK1 cAMP agonistic assay (% of positive control) [7]: 62
Substance: SEQ ID NO: 214, Pal-SSPHSY-miniPEG-(D-Phe)-(D-Phe)-Trp-(D-Arg), gel-forming kappa opioid receptor agonist (peptide)

EC50 (nM), MC1R cAMP agonistic assay [3]: < 0.05 nM | Max Activity % of positive control, MC1R cAMP agonistic assay (% of positive control) [3]: 120
Substance: SEQ ID NO: 224, Pal-HSYS-Nle-EH-(D-Phe)-RWGKPV-NH2, conjugated gel-forming Afamelanotide (melanotan I) analog (peptide)

EC50 (nM), MC4R cAMP agonistic assay [4]: 0.15 nM | Max Activity % of positive control, MC4R cAMP agonistic assay (% of positive control) [4]: 115
Substance: SEQ ID NO: 228, Pal-HSYRC-(D-Ala)-H-(D-Phe)-RWC-NH2, conjugated gel-forming setmelanotide analog (peptide)

IC50 (nM), BDKRB2 arrestin antagonistic assay [2]: 53.3 nM | Max Activity % of positive control, BDKRB2 arrestin antagonistic assay (% of positive control) [2]: 112
Substance: SEQ ID NO: 234, Pal-HSY-(D-Arg)-Arg-Pro-Hyp-Gly-Thi-Ser-(D-Tic)-Oic-Arg-NH2, conjugated bradykinin receptor antagonist (peptide)
